Reference: the supplement of paper PMC9170038

Test system: MS2 coat protein
Assay: apparent KD of MS2 coat protein; higher = weaker reporter binding
Details: Eterna round: R107
Procedure: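 RNA-MaP round R107: designed RNA switches with theophylline, tryptophan, arginine or FMN aptamers are transcribed on-chip within common flanks. They are titrated with SNAP-549-labelled MS2 coat protein in RNA-MaP buffer (100 mM Tris pH 7.5, 80 mM KCl, 4 mM MgCl2), without ligand or with the indicated ligand. Median apparent KD per design.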

[1] = input ligand: theophylline 20 uM
[2] = input ligand: tryptophan 2.4 mM
[3] = input ligand: theophylline 2 mM

Sequence	apparent KD of MS2 coat protein (input ligand: arginine 13.2 mM) [nM]	apparent KD of MS2 coat protein [1] [nM]	apparent KD of MS2 coat protein [2] [nM]	apparent KD of MS2 coat protein (input ligand: none) [nM]	apparent KD of MS2 coat protein [3] [nM]
ACACAUGAGGAUCACCCAUGUCCAAUAGAUACCAGUGAUACAGUGCACCCUUGGCAGCUGUUACUGAGUAAUGGUUCCCUCGGAA [Same State Theophylline A GF2]	26.8	48.6	37.5		
ACACCGAAAGGUGCAUUUUCCUUUUCAGAUACCAGACUUUACGUUGUCCCUUGGCAGCUGUAUCACAUGAGGAUCACCCAUGUUG [JR_SSTheophyA_Sub012]	16	21.4	15.9		
ACACGAAGCUGAAGGAGCGUGGUACAAGUUUUUACAUGAGGAUCACCCAUGUUUCGUCAAUCACAGGUAGGUCGCAGAUGCGUGA [#08 Same State - Arginine B]	32.1	42.5	25.9	29.2	36.6
ACACGGAAUGAUGGAUCACCUCGUGAAUCACGAGGACCGGUACGGCCGCCACUCGAAAACCGUGACCUGUACGAAAAGUGCAGGA	322	232	56.5	89.7	250
ACACGUGACAAGGAUACCAGCCUGGCUAGUUCAAACCCUCACAUGAGGAUCACCCAUGUAGGCCCUUGGCAGCCUAUAGUCUAAG [theeternabot_exclusion_MS2_Theo_B_38]	27.7	43.7	29.9		
ACAGGAAACGGAAGGAGCGGAAUUGCAACAUGAGGAUCACCCAUGUUGAUCGUGAGUUGCUUCCAGGUAGGUCGCCGUUACCUAA [Erorve]	30.1	39.4	30.4	33.6	44.2
ACAUGAACAUGAGGAUCACCCAUGUAUGAUACCAGAAAAGAAGAGUUCCCUUGGCAGCGUACAACACAUGAGGAUCACCCAUGUG [kvcmullin]	20.3	26.7	26.1		
ACAUGAACAUGAGGAUCACCCAUGUGGGAUACCAGCGUGUAUGAGCGCCCUUGGCAGCUCAUGACAUGAGGAUCACCCAUGUUGG [Exclusion Theophylline A 4]	154	242	224		
ACAUGAGGAUCACCCAUGUAAGGUCUUGAUACCAGACGAGAAGUAGUCCCUUGGCAGCAAAUACGUGAGGGUCACACAUGUGUAA [edsmullin]	21.6	37.7	25.9		
ACAUGAGGAUCACCCAUGUAAUUUACAGAAGGAGCGUGAUGGAUCACAGGUAGGUCGCUGUACUGCGAAAGCACUCUCAUGAAUA [JR_Nu_SSArginiA_Sub025]	18.6	25.3	19	16.8	19.7
ACAUGAGGAUCACCCAUGUACAUAAGGGAAGGAGCGCGGUGAAACGCAGGUAGGUCGCCCAUAAUAACAAUAAAUAAAUUCAUGU [LeftA1]	19.8	21	15.8	13.5	19
ACAUGAGGAUCACCCAUGUACAUAAGGGAAGGAGCGCGGUGAGACGCAGGUAGGUCGCCCAUAAUAACAAACAUUAAAUUCAUGU [#25 Same State - Arginine A]	17.2	25.5	19.1	17.7	21.3
ACAUGAGGAUCACCCAUGUACAUGAGGGAAGGAGCGGUACAUGUGCCAGGUAGGUCGCCCAACAGCAUCAGCCAUGUACAUCAGC [ppsmullin]	38.1	117	49.7	113	83.5
ACAUGAGGAUCACCCAUGUAGUGGCACGAUACCAGCUGAUCCCGUGGCCCUUGGCAGCGUCCGGUGUGGUCUGCCGGGAUGGAGC [WBWMULLIN]	25	40.7	24.8		
ACAUGAGGAUCACCCAUGUAUCAACGGGAAGGAGCGCCAAACAAGGCAGGUAGGUCGCCCACAUGAGGAUCACCCGUGUGUUGGG [Exclusion Arginine A GF 30]	23.1	58.5	38.4	37.8	43.9
ACAUGAGGAUCACCCAUGUAUUACCGGGAAGGAGCGCGUAAGGACGCAGGUAGGUCGCUCGGCGUCGUGCUGUAAAGCACGACGA [#1 Same State - Arginine A Attempt #24 (HarryS)]	67.7	18.6	15.3	14.9	14.9
ACAUGAGGAUCACCCAUGUAUUACCGGGAAGGAGCGCGUAAGGACGCAGGUAGGUCGCUCGGCGUCUGGCCGCAAGGCUGGACGA [#1 Same State - Arginine A Attempt #18 (HarryS)]	12.6	21.3	15.9	15.5	15.2
ACAUGAGGAUCACCCAUGUCAUGAGGUUCACGAGGACCGGUACGGCCGCCACUCGGGCUUCGGAUCACGGAUGUACAUGAUGAUC [kmullin1]	45.4	92.2			123
ACAUGAGGAUCACCCAUGUGCAUCACCCGACGAGGACCGGUACGGCCGCCACUCGGGUAUAUAUUUGCAUCGGGUGAUUUUACGU [#25 Tryptophan A Same State]	15.5	59.5			61.6

Sequence	apparent KD of MS2 coat protein (input ligand: arginine 13.2 mM) [nM]	apparent KD of MS2 coat protein [1] [nM]	apparent KD of MS2 coat protein [2] [nM]	apparent KD of MS2 coat protein (input ligand: none) [nM]	apparent KD of MS2 coat protein [3] [nM]
ACAUGAGGAUCACCCAUGUGGCGAGUUGAUACCAGACCCGCACUAGUCCCUUGGCAGCAACUACGUGUGGGACACCCAUGUUAAG [qpqmullin]	35.1	76.2	39.5	57.6	77.1
ACAUGAGGAUCACCCAUGUUCCUCAUUGAUACCAGUGAAUUUAGACGCCCUUGGCAGCGAGUUUAAGAAGAAGAAGUUUUUUUUU [6.C]	124	819	875		
ACAUGAGGAUCACCCAUGUUCCUCUUUGAUACCAGUGAGUUGUUUCGCCCUUGGCAGCGAGUGUUUGUUUUUUUGUUUUGUUUGG [6.S]	137	314	229		
ACCAACCACACCCUUCACUGUUUUCGCCGCCGAGGACCGGUACGGCCGCCACUCGUACAAAGACAUGAGGAUCACCCAUGUGCCU [theeternabot_exclusion_MS2_Trp_A_7]	14.8	20.3			20.4
ACGACGCAUACAGAUACCAGUAGAACAUGAGGAUCACCCAUGUCUGAGGCGCUCCGCCACUGCCCUUGGCAGCUGUAUGCGUCAG [SSTheo B #11]	9.42	12.6	9.81		
ACGGAGAUUGCUAAAUGUUGGCGAGCGGAUACCAGCCUAUAAUCGGGCCCUUGGCAGCCGACAUGAGGAUCACCCAUGUAAACAA [Gelelaor]	12.3	98.9	58.6	121	87.3
ACGUAAAGCAGAAGGAGCGUCUUCAAAUUACAUGAGGAUCACCCAUGUUUUGUGAUCAUAUGACAGGUAGGUCGCUGAAGUACGA [JR_SSArginiB_Sub003]	58.3	97.5	66.5	71.7	86.4
ACGUAAUGCAGAAGGAGCGUCUUUUUAAAACAUGAGGAUCACCCAUGUAAUAUUUAUGGGAGACAGGUAGGUCGCUGAAGUACGA [JR_SSArginiB_Sub006]	30.3	32.3	25.3	23.5	22.3
ACGUUGUAGUCGGCCGCCACUGUUUUCAUGUUCAACAUGAGGAUCACCCAUGUACCUUUUUUUAUCAGGACCGGGACGUAUUCGA [JR_SSTryptoB_Sub003]	46.5	102			96.8
ACUAGAGGUGGAAGGAGCGGGAGACAUGAGGAUCACAUGAGGAUCACCCAUGUAGGAUCAUCCCAGGUAGGUCGCCAUGUCGAAA [,mmlmullin]	46	255	293	979	456
ACUCGACCAUCAGCCAUUUGUGAAUCACGGCGAGGACCGGUACGGCCGCCACUCGACAUGAGGAUCACCCAUGUAAGACCGGUGU [vmullin3]	24	37.8			39.6
ACUCGGUGUUUGUUGCUCCGAGUGUAUGAUACCAGUUAGUUUUAUGGCCCUUGGCAGCAUAGGACAUGAGGAUCACCCAUGUGUU [#02 SameState-TheophyllineA]	27.3	41.1	34.9		
ACUCGGUGUUUGUUGCUCCGAGUUUAUGAUACCAGUUAGUUUUAUGGCCCUUGGCAGCAUAGGACAUGAGGAUCACCCAUGUGUU [#03 SameState-TheophyllineA]	26.2	38.6	32.2		
ACUUUGUCGGGUGAUACCAGCCUCGGCACAUCUCGUGCCGAACAUGAGGAUCACCCAUGUGGCCCUUGGCAGCACAUGACAAAUC [Isredior]	70.1	522	423		
AGAAGUCCAGACUACACGUGGAAAAGCGAUACCAGACUCAUAGGUGUCCCUUGGCAGCGCGUAACAUGAGGAUCACCCAUGUGAU [theeternabot_exclusion_MS2_Theo_A_9]	66.8	190	133		
AGACAUGAGGAUCACCCAUGUAGUACGGAUACCAGAUCCAGAUGCGUCCCUUGGCAGCUGUAGUACAGCGUUACGUCGCUCAUAG [Exclusion - Theophylline A (Freestyle 26)]	20.3	48.1	28.4		
AGACAUGAGGAUCACCCAUGUAGUACGGAUACCAGAUCCAGAUGUAUCCCUUGGCAGCUGUGGUACAGCGUUACAUCGCUCCUAG [Exclusion - Theophylline A (Freestyle 20)]	15.9	24.4	15.8		
AGACAUGAGGAUCACCCAUGUAGUAUGGAUACCAGAUCCAGAUUUAUCCCUUGGCAGCUGUGGUACAGCGUUGCAACGCUCCUAG [Exclusion - Theophylline A (Freestyle 14)]	30.4	38.7	31.8		
AGAGAGGCGCAUGAUACCAGCUUGGCCUAACAUGAGGAUCACCCAUGUCAAUGGGCCUUAAGCCCUUGGCAGCAUAGGGUGUCCU [Xeestixexe]	72.7	186	85.9	72.1	25.9
